Reference: patent US20250076311A1 (Chugai, published 2025)

T1: cynomolgus monkey FcγRIIb extracellular domain, His-tagged (cynomolgus monkey)
T1 construct: also called cyno FcγRIIb; cynoFcγRIIb; not shown: C-terminal His-tag
T1 chain: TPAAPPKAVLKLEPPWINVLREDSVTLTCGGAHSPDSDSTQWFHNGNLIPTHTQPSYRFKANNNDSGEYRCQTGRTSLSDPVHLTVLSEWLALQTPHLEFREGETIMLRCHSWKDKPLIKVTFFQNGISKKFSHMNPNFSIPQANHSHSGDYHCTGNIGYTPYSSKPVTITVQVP

T2: human FcγRIIaH extracellular domain, C-terminal His-tag (human, UniProt P12318 34-217)
T2 construct: also called FcgRIIaH; human FcγRIIa (type H)
T2 sequence: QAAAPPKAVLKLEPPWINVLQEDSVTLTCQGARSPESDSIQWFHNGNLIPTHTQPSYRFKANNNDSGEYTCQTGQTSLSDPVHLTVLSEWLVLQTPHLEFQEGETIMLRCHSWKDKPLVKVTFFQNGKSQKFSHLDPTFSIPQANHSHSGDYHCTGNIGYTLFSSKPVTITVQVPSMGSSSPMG

T3: cynomolgus monkey FcγRIIa3 extracellular domain, His-tagged (cynomolgus monkey)
T3 construct: also called cyno FcγRIIa3; cynoFcgRIIa3; not shown: C-terminal His-tag
T3 chain: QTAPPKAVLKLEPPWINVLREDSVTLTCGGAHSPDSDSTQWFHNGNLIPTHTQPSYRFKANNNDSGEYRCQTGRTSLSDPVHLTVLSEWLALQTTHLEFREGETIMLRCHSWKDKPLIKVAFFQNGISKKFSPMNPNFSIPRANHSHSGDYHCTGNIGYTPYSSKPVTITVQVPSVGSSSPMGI

T4: human FcγRIIaR extracellular domain, His-tagged (human, UniProt P12318 34-217)
T4 construct: also called human FcγRIIa (type R); FcgRIIaR; not shown: C-terminal His-tag
T4 chain: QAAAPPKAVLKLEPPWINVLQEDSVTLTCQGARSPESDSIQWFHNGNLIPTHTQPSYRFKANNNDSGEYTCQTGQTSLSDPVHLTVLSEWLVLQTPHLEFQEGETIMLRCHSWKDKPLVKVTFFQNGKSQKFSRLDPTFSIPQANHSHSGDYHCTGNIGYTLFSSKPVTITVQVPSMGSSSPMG

T5: cynomolgus monkey FcγRIIa2 extracellular domain, His-tagged (cynomolgus monkey)
T5 construct: also called cyno FcγRIIa2; cynoFcgRIIa2; not shown: C-terminal His-tag
T5 chain: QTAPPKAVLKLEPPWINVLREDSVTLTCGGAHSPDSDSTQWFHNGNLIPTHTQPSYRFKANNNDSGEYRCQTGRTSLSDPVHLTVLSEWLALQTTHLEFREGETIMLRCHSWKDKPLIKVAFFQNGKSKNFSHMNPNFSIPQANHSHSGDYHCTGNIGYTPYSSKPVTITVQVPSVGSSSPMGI

T6: human FcγRIIb extracellular domain, His-tagged (human, UniProt P31994 43-217)
T6 construct: also called FcgRIIb (human); not shown: C-terminal His-tag
T6 sequence: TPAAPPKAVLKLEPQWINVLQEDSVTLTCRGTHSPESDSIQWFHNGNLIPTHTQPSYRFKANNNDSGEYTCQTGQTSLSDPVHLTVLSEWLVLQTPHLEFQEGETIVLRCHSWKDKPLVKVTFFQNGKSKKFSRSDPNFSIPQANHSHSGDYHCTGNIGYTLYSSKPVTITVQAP


Assays:
[1] = target: T1, cynomolgus monkey FcγRIIb extracellular …; assay: SPR Biacore, antibody captured, FcgR analyte
[2] = target: T2, human FcγRIIaH extracellular domain, …; assay: SPR, anti-kappa capture; KD(SG1)/KD(variant)
[3] = target: T3, cynomolgus monkey FcγRIIa3 …; assay: SPR Biacore, KD(SG1)/KD(variant)
[4] = target: T4, human FcγRIIaR extracellular domain, …; assay: SPR Biacore, KD(SG1)/KD(variant)
[5] = target: T5, cynomolgus monkey FcγRIIa2 …; assay: SPR Biacore, KD(SG1)/KD(variant)
[6] = target: T6, human FcγRIIb extracellular domain, …; assay: SPR Biacore, KD(SG1)/KD(variant)
[7] = target: T7, human FcγRIIIaV extracellular domain, His-tagged (human, UniProt P08637 17-208); assay: SPR Biacore, antibody captured, FcgR analyte
T7 construct: also called FcgRIIIaV; not shown: C-terminal His-tag

[8] = target: T5, cynomolgus monkey FcγRIIa2 …; assay: SPR Biacore, antibody captured, FcgR analyte

T7 sequence (P08637 17-208 F176V): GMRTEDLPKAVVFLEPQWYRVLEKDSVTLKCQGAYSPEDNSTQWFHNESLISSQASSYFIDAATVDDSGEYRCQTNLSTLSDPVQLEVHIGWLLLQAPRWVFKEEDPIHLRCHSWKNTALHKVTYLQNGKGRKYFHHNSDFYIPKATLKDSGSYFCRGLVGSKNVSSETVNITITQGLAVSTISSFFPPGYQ

Binder	Kd [1] [nM]	KD fold (SG1 = 1) [2] [fold]	KD fold (SG1 = 1) [3] [fold]	Kd [7] [nM]	other results
M103205H795-MY015/M103202L889-SK1 (antibody, human IgG1, kappa, name in EU numbering, Substitution introduced into M103205H795-SG1; EU numbering) heavy: not shown light: DIVMTQSPATLSLSPGERATLSCTSSQSVYHANWLSWFQQKPGQPPKLLIYWASTLAYGVPSRFSGSGSGTDFTLTISSLQPEDAATYYCAGGYGGGRYAFGQGTKVEIKRTVAAPSVFIFPPSDEQLKSGTASVVCLLNNFYPREAKVQWKVDNALQSGNSQESVTEQDSKDSTYSLSSTLTLSKADYEKHKVYACEVTHQGLSSPVTKSFNRGEC	600				
MS103240H795-TT91/M103202L1045-SK1 (antibody) heavy: QVQLVESGGGLVQPGGSLRLSCAVSGIDLSHDDISWVRQAPGKGLEWVSIISYAGSTYYASWAKGRLTISKDTSKNQVVLTMTNMDPVDTATYYCARGVPAYSHGGDLWGQGTLVTVSSASTKGPSVFPLAPSSKSTSGGTAALGCLVKDYFPEPVTVSWNSGALTSGVHTFPAVLQSSGLYSLSSVVTVPSSSLGTQTYICNVNHKPSNTKVDKKVEPKSCDKTHTCPPCPAPEYLGGDSVFLFPPKPKDVLMISRTPEVTCVVIDVSHEDPEVKFNWYVDGVEVHNAKTKPREEQYNSTYRVVSVLPVLHRDWLNGKEYKCKVSNKALPKPIEKTISKAKGQRREPQVYTLPPSREEMTKNQVSLTCLVKGFYPSDIAVEWESNGQPENNYKTTPPVLDSDGSFFLYSKLTVDKSRWQQGNVFSCSVLHEALHAHTTRKELSLSP light: DIVMTQSPATLSLSPGERATLSCTTSQSVYHENWLSWFQQKPGQPPKLLIYWASTLAYGVPSRFSGSGSGTDFTLTISSLQPEDAATYYCAGGYGGGRYAFGQGTKVEIKRTVAAPSVFIFPPSDEQLKSGTASVVCLLNNFYPREAKVQWKVDNALQSGNSQESVTEQDSKDSTYSLSSTLTLSKADYEKHKVYACEVTHQGLSSPVTKSFNRGEC		0.02			
M103205H795-MY017/M103202L889-SK1 (antibody, human IgG1, kappa, name in EU numbering, Substitution introduced into M103205H795-SG1; EU numbering) heavy: not shown light: DIVMTQSPATLSLSPGERATLSCTSSQSVYHANWLSWFQQKPGQPPKLLIYWASTLAYGVPSRFSGSGSGTDFTLTISSLQPEDAATYYCAGGYGGGRYAFGQGTKVEIKRTVAAPSVFIFPPSDEQLKSGTASVVCLLNNFYPREAKVQWKVDNALQSGNSQESVTEQDSKDSTYSLSSTLTLSKADYEKHKVYACEVTHQGLSSPVTKSFNRGEC	680		3.1		KD fold (SG1 = 1) [4]: 3.9 fold; KD fold (SG1 = 1) [5]: 1.6 fold; KD fold (SG1 = 1) [6]: 4.5 fold
M103205H795-MY038/M103202L889-SK1 (antibody, human IgG1, kappa, name in EU numbering, Substitution introduced into M103205H795-SG1; EU numbering) heavy: not shown light: DIVMTQSPATLSLSPGERATLSCTSSQSVYHANWLSWFQQKPGQPPKLLIYWASTLAYGVPSRFSGSGSGTDFTLTISSLQPEDAATYYCAGGYGGGRYAFGQGTKVEIKRTVAAPSVFIFPPSDEQLKSGTASVVCLLNNFYPREAKVQWKVDNALQSGNSQESVTEQDSKDSTYSLSSTLTLSKADYEKHKVYACEVTHQGLSSPVTKSFNRGEC				550	
M103205H795-MY043/M103202L889-SK1 (antibody, human IgG1, kappa, name in EU numbering, Substitution introduced into M103205H795-SG1; EU numbering) heavy: not shown light: DIVMTQSPATLSLSPGERATLSCTSSQSVYHANWLSWFQQKPGQPPKLLIYWASTLAYGVPSRFSGSGSGTDFTLTISSLQPEDAATYYCAGGYGGGRYAFGQGTKVEIKRTVAAPSVFIFPPSDEQLKSGTASVVCLLNNFYPREAKVQWKVDNALQSGNSQESVTEQDSKDSTYSLSSTLTLSKADYEKHKVYACEVTHQGLSSPVTKSFNRGEC			0.5	1200	Kd [8]: 6100 nM
MS103240H795-TT68/M103202L1045-SK1 (antibody, copies: 2 + 2) heavy: QVQLVESGGGLVQPGGSLRLSCAVSGIDLSHDDISWVRQAPGKGLEWVSIISYAGSTYYASWAKGRLTISKDTSKNQVVLTMTNMDPVDTATYYCARGVPAYSHGGDLWGQGTLVTVSSASTKGPSVFPLAPSSKSTSGGTAALGCLVKDYFPEPVTVSWNSGALTSGVHTFPAVLQSSGLYSLSSVVTVPSSSLGTQTYICNVNHKPSNTKVDKKVEPKSCDKTHTCPPCPAPELLGGDSVFLFPPKPKDVLMISRTPEVTCVVVDVSHEDPEVKFNWYVDGVEVHNAKTKPREEQYNSTYRVVSVLPVLHRDWLNGKEYKCKVSNKALPKPIEKTISKAKGQPREPQVYTLPPSREEMTKNQVSLTCLVKGFYPSDIAVEWESNGQPENNYKTTPPVLDSDGSFFLYSKLTVKKSRWQQGNVFSCSVMHEALHAHYTRKELSLSP light: DIVMTQSPATLSLSPGERATLSCTTSQSVYHENWLSWFQQKPGQPPKLLIYWASTLAYGVPSRFSGSGSGTDFTLTISSLQPEDAATYYCAGGYGGGRYAFGQGTKVEIKRTVAAPSVFIFPPSDEQLKSGTASVVCLLNNFYPREAKVQWKVDNALQSGNSQESVTEQDSKDSTYSLSSTLTLSKADYEKHKVYACEVTHQGLSSPVTKSFNRGEC		0.006			
